Measured values published in US7119182 (University of California, dated 2006).
Numbered stars: 1 amine (or outer) side, 2 acyl side, 3 side chain; on linkers, the order of the positions; unused ones are H or OH. Square brackets hold non-standard residues; d marks the D form. Ends that are not written are not given here. SMeCys = S-methylcysteine, CSC[C@H](N[*:1])C(=O)[*:2]; Tic = O=C(O)[C@@H]1Cc2ccccc2CN1; Cha = N[C@@H](CC1CCCCC1)C(=O)O; Phg = N[C@H](C(=O)O)c1ccccc1

T1: human thrombin receptor (human, UniProt P25116 42-425)
T1 chain: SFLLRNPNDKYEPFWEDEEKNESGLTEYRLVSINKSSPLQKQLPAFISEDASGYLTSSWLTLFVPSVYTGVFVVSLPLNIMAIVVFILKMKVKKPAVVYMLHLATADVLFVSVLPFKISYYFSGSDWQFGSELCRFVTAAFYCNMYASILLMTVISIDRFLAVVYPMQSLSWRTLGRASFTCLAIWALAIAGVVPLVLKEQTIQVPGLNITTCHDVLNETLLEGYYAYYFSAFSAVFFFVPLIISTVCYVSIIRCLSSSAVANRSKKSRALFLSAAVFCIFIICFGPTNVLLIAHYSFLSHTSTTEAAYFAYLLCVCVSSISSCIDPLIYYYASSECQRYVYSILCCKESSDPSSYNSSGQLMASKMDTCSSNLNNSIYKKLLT

B1: SF(Phg)LR-NH2 (peptide)
peptide: SF[Phg]LR-NH2
modifications: N-terminus assumed
SMILES: CC(C)C[C@H](NC(=O)[C@@H](NC(=O)[C@H](Cc1ccccc1)NC(=O)[C@@H](N)CO)c1ccccc1)C(=O)N[C@@H](CCCNC(=N)N)C(N)=O
B2: SF(Cha) (Cha)RN-NH2 (peptide)
peptide: SF[Cha][Cha]RN-NH2
modifications: N-terminus assumed
SMILES: N=C(N)NCCC[C@H](NC(=O)[C@H](CC1CCCCC1)NC(=O)[C@H](CC1CCCCC1)NC(=O)[C@H](Cc1ccccc1)NC(=O)[C@@H](N)CO)C(=O)N[C@@H](CC(N)=O)C(N)=O
B3: SF(Cha)LRN-NH2 (peptide)
peptide: SF[Cha]LRN-NH2
modifications: N-terminus assumed
SMILES: CC(C)C[C@H](NC(=O)[C@H](CC1CCCCC1)NC(=O)[C@H](Cc1ccccc1)NC(=O)[C@@H](N)CO)C(=O)N[C@@H](CCCNC(=N)N)C(=O)N[C@@H](CC(N)=O)C(N)=O
B4: SF(Cha)LR-NH2 (peptide)
peptide: SF[Cha]LR-NH2
modifications: N-terminus assumed
SMILES: CC(C)C[C@H](NC(=O)[C@H](CC1CCCCC1)NC(=O)[C@H](Cc1ccccc1)NC(=O)[C@@H](N)CO)C(=O)N[C@@H](CCCNC(=N)N)C(N)=O
B5: SF(Tic)LRN-NH2 (peptide)
peptide: SF[Tic]LRN-NH2
modifications: N-terminus assumed
SMILES: CC(C)C[C@H](NC(=O)[C@@H]1Cc2ccccc2CN1C(=O)[C@H](Cc1ccccc1)NC(=O)[C@@H](N)CO)C(=O)N[C@@H](CCCNC(=N)N)C(=O)N[C@@H](CC(N)=O)C(N)=O
B6: SFL(Cha)R-NH2 (peptide)
peptide: SFL[Cha]R-NH2
modifications: N-terminus assumed
SMILES: CC(C)C[C@H](NC(=O)[C@H](Cc1ccccc1)NC(=O)[C@@H](N)CO)C(=O)N[C@@H](CC1CCCCC1)C(=O)N[C@@H](CCCNC(=N)N)C(N)=O
B7: (S-MeCys)FLLRN-NH2 (peptide)
peptide: [SMeCys]FLLRN-NH2
modifications: N-terminus assumed
SMILES: CSC[C@H](N)C(=O)N[C@@H](Cc1ccccc1)C(=O)N[C@@H](CC(C)C)C(=O)N[C@@H](CC(C)C)C(=O)N[C@@H](CCCNC(=N)N)C(=O)N[C@@H](CC(N)=O)C(N)=O

Molecular target: T1, human thrombin receptor
Assay: cell-based or functional assay

Binder | EC50 (concentration required to elicit a 50% maximal aggregation), platelet aggregation
TFLLRNPNDK | 8.5 µM
Ac-FLLRNPNDKYEPF [Ac-FLLRNPNDKYEPF] | 796 µM
SFLFR-NH2 [SFLFR-NH2] | 17 µM
SFLLX (D-Arg at position 5; C-terminal amide (NH2)) [SFLL(D-Arg)-NH2] | 594 µM
B1 | 6.7 µM
SXLLR (Nal at position 2; C-terminal amide (NH2)) [S(Nal)LLR-NH2] | 42 µM
B2 | 1.1 µM
SFILR-NH2 [SFILR-NH2] | 5.9 µM
SFL[Nal]RN-NH2 (not fully specified; printed as SFL(Nal)RN-NH2) [SFL(Nal)RN-NH2] | 7.5 µM
SFLLRNPNDK | 6.3 µM
SYLLR-NH2 [SYLLR-NH2] | 288 µM
SXLLR (Cha at position 2; C-terminal amide (NH2)) [S(Cha)LLR-NH2] | 140 µM
SFFLR-NH2 [SFFLR-NH2] | 3.4 µM
AFLLRNPNDKYE | 12.9 µM
SFLLA-NH2 [SFLLA-NH2] | 137 µM
SFLLRN-NH2 [SFLLRN-NH2] | 1.6 µM
SFLIRN-NH2 [SFLIRN-NH2] | 20.5 µM
SFLQRN-NH2 [SFLQRN-NH2] | 61 µM
B3 | 1.3 µM
SFLLRNP-NH2 [SFLLRNP-NH2] | 4.5 µM
CFLLR-NH2 [CFLLR-NH2] | 193 µM
B4 | 1.5 µM
{3‑Tetrahydrofuranoyl}-FLLR-NH2 [[3-Tetrahydrofuranoyl]-FLLR-NH2] | 1000 µM
SFLLRNPNDKYE | 6.6 µM
GFLLR-NH2 [GFLLRNH2] | 7.3 µM

Binder | EC50 (concentration required to elicit a 50% maximal aggregation), platelet aggregation
XFLLR (b-Ala at position 1; C-terminal amide (NH2)) [[b-Ala]-FLLR-NH2] | 99 µM
SFLL-NH2 [SFLL-NH2] | 146 µM
SFPLR-NH2 [SFPLR-NH2] | 22 µM
B5 | 11.3 µM
SFXLR (N-MeLeu at position 3; C-terminal amide (NH2)) [SF(N-MeLeu)LR-NH2] | > 1000 µM
{2‑MeButyryl}-FLLR-NH2 [(2-MeButyryl]-FLLR-NH2] | 1500 µM
SFLLR-NH2 [SFLLR-NH2] | 7.5 µM
SFLAR-NH2 [SFLAR-NH2] | 146 µM
SFGLR-NH2 [SFGLR-NH2] | 95 µM
SFFLRN-NH2 [SFFLRN-NH2] | 1.5 µM
SFRLR-NH2 [SFRLR-NH2] | 7.4 µM
SFLRR-NH2 [SFLRR-NH2] | 1000 µM
SFHLRN-NH2 [SFHLRN-NH2] | 40.5 µM
SFALRNPNDKYE | 20.7 µM
SF[Cha][Cha]LRNPNDK [SF(Cha) (Cha)LRNPNDK] | 5.4 µM
B6 | 6 µM
SXLLR (OMeTyr at position 2; C-terminal amide (NH2)) [S(OMeTyr)LLR-NH2] | 46 µM
SXLLR (Thi at position 2; C-terminal amide (NH2)) [S(Thi)LLR-NH2] | 7.6 µM
SFLLRNPN | 7.6 µM
SFWLR-NH2 [SFWLR-NH2] | 24 µM
SFYLRN-NH2 [SFYLRN-NH2] | 4.9 µM
desaminoAsn-FLLR-NH2 [[desaminoAsn]-FLLR-NH2] | 237 µM
XFLLR (desaminoSer at the N-terminus; C-terminal amide (NH2)) [[desaminoSer]-FLLR-NH2] | 920 µM
B7 | 129 µM
